Patent publication US20080194020A1, “Methods For Producing Dendritic Cells That Have Acquired Ctl-Inducing Ability” (Medical and Biological Laboratories Co., Ltd., priority 2004, published 2008)

B1: OVA: Chicken ovalbumin used as an antigen model (protein)
chain: GSIGAASMEFCFDVFKELKVHHANENIFYCPIAIMSALAMVYLGAKDSTRTQINKVVRFDKLPGFGDSIEAQCGTSVNVHSSLRDILNQITKPNDVYSFSLASRLYAEERYPILPEYLQCVKELYRGGLEPINFQTAADQARELINSWVESQTNGIIRNVLQPSSVDSQTAMVLVNAIVFKGLWEKAFKDEDTQAMPFRVTEQESKPVQMMYQIGLFRVASMASEKMKILELPFASGTMSMLVLLPDEVSGLEQLESIINFEKLTEWTSSNVMEERKIKVYLPRMKMEEKYNLTSVLMAMGITDVFSSSANLSGISSAESLKISQAVHAAHAEINEAGREVVGSAEAGVDAASVSEEFRADHPFLFCIKHIATNAVLFFGRCVSP
B2: bOVA: OVA antigen recovered with streptavidin beads (biotin-labeled samples) (protein)
chain: B1 chain
B3: OVA-KDEL: OVA with the endoplasmic reticulum localization sequence KDEL added to its C-terminus, SEQ ID NO: 14 (protein)
chain: MGSIGAASMEFCFDVFKELKVHHANENIFYCPIAIMSALAMVYLGAKDSTRTQINKVVRFDKLPGFGDSIEAQCGTSVNVHSSLRDILNQITKPNDVYSFSLASRLYAEERYPILPEYLQCVKELYRGGLEPINFQTAADQARELINSWVESQTNGIIRNVLQPSSVDSQTAMVLVNAIVFKGLWEKAFKDEDTQAMPFRVTEQESKPVQMMYQIGLFRVASMASEKMKILELPFASGTMSMLVLLPDEVSGLEQLESIINFEKLTEWTSSNVMEERKIKVYLPRMKMEEKYNLTSVLMAMGITDVFSSSANLSGISSAESLKISQAVHAAHAEINEAGREVVGSAEAGVDAASVSEEFRADHPFLFCIKHIATNAVLFFGRCVSPASAEDYEYPSRSNGTKNNTSQASKDEL

Legend:
DC2.4 cells [1] = experiment: MHC class I cross-presentation by DC2.4 cells to OT-I CD8+ T cells (IL-2 ELISA); assay type: cell-based, mouse; conditions: for antigenicity for stimulation of CD8+ OT-I T cells: FIG. 8a, OVA compared with bOVA
From the text: Whether knock-down of cellular components involved in ERAD decreases the cross-presentation of exogenous OVA antigen was examined using a system for evaluating the level of antigen presentation, which uses naive CD8^+ T cells from OT-I mice and DC2.4 cells. The DC2.4 cells used as a model of dendritic cells are of the H-2Kb mouse MHC class I haplotype. OT-I (H-2Kb) mice are transgenic mice expressing a T cell receptor (TCRα and β) that recognizes an antigenic peptide (SIINFEKL) (SEQ ID NO: 15) derived from OVA presented on the H-2Kb molecules. The CD8^+ cells of OT-I mice are activated when they recognize OVA peptides presented by BMDCs derived from H-2Kb mice or by DC2.4 cells. When OVA or bOVA is incubated with and affixed onto DC2.4 cells and the cells are further incubated with naive CD8^+ T cells of OT-I mice, the amount of IL-2 produced by OT-I CD8^+ T cells serves as an index of T-cell stimulation as a result of OVA antigen presented by DC2.4 cells.
Parental or knocked-down DC2.4 cells were pre-incubated in a culture medium supplemented with 50 μg mL^−1 polymyxin B for 30 minutes in the presence or absence of lactacystin or MG-132, and incubated with OVA (250 μg mL^−1) or SIINFEKL peptides (10 ng mL^−1) for six hours. The cells were washed, fixed with 1% paraformaldehyde, and aliquoted into microtiter plates (5×10^4 per well). 5×10^4 CD8^+ T cells purified from splenocytes of OT-1 mice using magnetic beads were added to each well and after a 24-hour incubation, the IL-2 secretion was measured by ELISA (BD Biosciences) in triplicate.
DC2.4 cells were incubated with OVA (0, 50, or 250 μg/mL) in RPMI1640/10c% FCS for six hours at 37° C., in the presence or absence of pig-derived HSP90 (10 μg/mL). After washing away the antigen and HSP, OT-I CD8^+ T cells were added, cells were cultured overnight at 37° C., and the amount of IL-2 comprised in the supernatant was measured by the ELISA method.
The timing of the addition of HSP90 (10 μg/mL) and OVA (250 μg/mL) to DC2.4 cells was varied, and the effect on class I antigen presentation was observed. (i) HSP90 was added first, DC2.4 cells were washed, and then OVA was added. (ii) HSP90 and OVA were added simultaneously to DC2.4 cells. (iii) OVA was added first, and after washing DC2.4 cells, HSP90 was added. The results obtained under these three conditions were compared. […]
Under condition (i), HSP90 was added to DC2.4 cells, the cells were cultured for 30 minutes and then washed to remove HSP90. […] DC2.4 cells activated with OVA by the above procedure were plated in a 96-well plate, OT-I mouse-derived CD8^+ T cells were added to this, and after culturing overnight, the amount of IL-2 released into the supernatant was measured by ELISA. […]

DC2.4 cells [2] = experiment: MHC class II antigen presentation by DC2.4 cells to OT-II CD4+ T cells (IL-2 production); assay type: cell-based, mouse; conditions: FIG. 9 control: DC2.4 cells cultured with OVA, no NH4Cl
Procedure: DC2.4 cells pretreated in the presence of NH4Cl were cultured with OVA, and then the stimulation of OT-I CD8^+ T cells in response to MHC class I antigen presentation (circles) and stimulation of OT-II CD4^+ T cells in response to MHC class II antigen presentation (triangles) was determined by measuring IL-2 production levels. IL-2 production level in the presence of NH4Cl was expressed as a ratio relative to the control (IL-2 production was 700 pg/mL relative to OT-I, and 20 pg mL relative to OT-II).

DC2.4 cells [3] = experiment: Polyubiquitination of antigenic protein taken up by DC2.4 cells (SDS-PAGE, Western blot with anti-polyubiquitin antibody); assay type: cell-based, mouse
Procedure: There are reports that when the KDEL sequence (Lys-Asp-Glu-Leu) (SEQ ID NO: 3), an endoplasmic reticulum localization sequence, is added to the carboxyl terminus of a protein localized in the ER lumen, the protein is repeatedly transported between the ER and Golgi apparatus, and ERAD of that protein is promoted. Therefore, DC2.4 cells were made to take up OVA with KDEL (SEQ ID NO: 3) added to its C-terminus, and OVA that was polyubiquitinated after uptake was observed by SDS-PAGE and Western blotting. OVA to which a KDEL sequence (SEQ ID NO: 3) was added was constructed and expressed as follows: using a plasmid comprising a DNA sequence encoding OVA as a template, PCR was performed using oligo-1 (SEQ ID NO: 10) and oligo-2 (SEQ ID NO: 11) as primers. The amplified PCR product of approximately 1100 bp was introduced into a pCR-Blunt vector (Invitrogen) to obtain vector-1. Oligo-3 (SEQ ID NO: 12) and oligo-4 (SEQ ID NO: 13) were annealed, and the obtained gene fragment of approximately 100 bp was introduced into the pCR-Blunt vector to obtain vector-2. Vector-2 was digested with SpeI, the obtained gene fragment of approximately 130 bp was introduced into vector-1 that had been digested with NheI to obtain vector-3. An approximately 1250-bp gene fragment (OVA-KDEL) obtained when vector-3 was digested with BamHI/SpeI was introduced into a vector for gene expression, and then expressed. […]

DC2.4 cells [4] = experiment: Uptake of antigenic protein into DC2.4 cells; assay type: cell-based, mouse; conditions: CHIP-knocked-down DC2.4 cells
Procedure: Next, DC2.4 cells were incubated for a set amount of time with OVA in the presence or absence of lactacystin (LC), and OVA taken up into the cells was measured. OVA taken up into cells in the presence or absence of Hsp90 was measured similarly.

DC2.4 cells [5] = tested on: DC2.4 cells
Procedure: Intracellular localization of foreign antigens was examined by cell fractionation methods. Chicken ovalbumin (OVA) was used as an antigen model, and DC2.4 (haplotype H-2Kb), a cultured cell line of mouse dendritic cells, was used as a model for dendritic cells. […] BMDCs with a haplotype of H-2Kb, the same as that of DC2.4, were used as the control. BMDCs were induced from the bone marrow cells of C57BL/6 mice (SLC) in RPMI-1640 supplemented with 5% FCS using 5 ng/mL GM-CSF (MEL), and those cells purified by magnetic beads after five days of culturing were used.
DC2.4 cells made to take up bOVA antigens were suspended in 10 mM Tris-HCl (pH7.4) containing 250 mM sucrose, this was homogenized using glass beads, centrifuged for 30 minutes at 250,000×g, and then fractionated. The supernatant was used as the soluble fraction; the precipitates were suspended in the same buffer as described above and used as the microsomal fraction. A fixed amount was incubated in the presence or absence of 1% TritonX-100, and together with or without 100 μg mL^−1 trypsin. Before collecting bOVA, soybean trypsin inhibitor (Sigma) was added at 500 μg mL^−1.

Row | Molecule | antigenicity for stimulation of CD8+ OT-I T cells (DC2.4 cells [1]) | IL-2 production, OT-I CD8+ T cells (DC2.4 cells [1]; FIG. 9 control: DC2.4 cells cultured with OVA, no NH4Cl) [pg/mL] | IL-2 production, OT-II CD4+ T cells (DC2.4 cells [2]) [pg·mL] | polyubiquitination of bOVA (DC2.4 cells [3]; CHIP-knocked-down DC2.4 cells) [%] | uptake of bOVA relative to parental DC2.4 cells (DC2.4 cells [4]) | share of bOVA taken up by cells recovered as trypsin-resistant bOVA from the microsomal fraction (DC2.4 cells [5]) [%] | antigen presentation level compared to OVA (OT-I CD8+ T cells) (DC2.4 cells [1]; DC2.4 cells, data not shown) | polyubiquitination of the substrate compared to OVA (DC2.4 cells [3]; DC2.4 cells made to take up OVA with KDEL added to its C-terminus)
1 | B1 | equally antigenic | 700 | 20 |  |  |  |  | 
2 | B2 | equally antigenic |  |  | 34 | about 70% | ≥ 70 |  | 
3 | B3 |  |  |  |  |  |  | clearly found to be stronger | significantly promoted polyubiquitination
